Source: the supplement of paper PMC9170038

System: MS2 coat protein
Assay: apparent KD of MS2 coat protein; designed switch direction (-1 OFF switch, 1 ON switch): -1; higher = weaker reporter binding
How it was run: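 The buffer was Tris-HCl pH 7.5 with KCl, MgCl2, BSA, DTT, tRNA and Tween-20. In it, SNAP-549-labelled MS2 coat protein was titrated in doubling steps from 0.7 or 1.5 nM to 3 µM over chip-bound RNA switches transcribed by stalled E. coli RNA polymerase on Illumina chips. Apparent KD is the per-design median over clusters of curve fits to normalised fluorescence.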

[1] = input ligand: microRNA oligo, concentration not stated
[2] = Eterna round: R95, input ligand: microRNA oligo, concentration not stated
[3] = Eterna round: R95, input ligand: FMN 200 uM
[4] = Eterna round: R95, input ligand: none

With “AAACGGCAGGGAGGAUAUGCUUACCUGGGUCGUCUUCAGACAUGAGGAUCACCCAUGUAGUCGACGCAGAAGGCCCUCAAAGCC [JL ViennaUCT Ontiis mod 3] (Eterna round: R96, puzzle: Exclusion NG 2)” the “apparent KD of MS2 coat protein” value (input ligand: FMN 200 uM) was 413 nM, the “apparent KD of MS2 coat protein” value [1] was 38.7 nM and the “apparent KD of MS2 coat protein” value (input ligand: none) was 51.1 nM.
In the case of “CGUGCGUAUGUGAGGAUAUGCUGGUCCUUGGAUCGGCAGAAGGCACAUGAGGAUCACCCAUGUGGUGUCGUUCU [salish99_Bmod_ex4_092] (puzzle: Brourd's mod of Exclusion 4)”, the “apparent KD of MS2 coat protein” value [2] is reported as 129 nM.
In the case of “GAUUAUGCGAGCUUUAGGGACAUGAGGAUCACCCAUGUUCGUCUUAUUGAUCUAGGUACGCUGACAUACCUAAAUCU [Mod of one of jandersonlee's solutions 2] (puzzle: Sensor v3, turn-off variant 1)”, the “apparent KD of MS2 coat protein” value [3] is reported as 22.4 nM, the “apparent KD of MS2 coat protein” value [2] is reported as 36.1 nM and the “apparent KD of MS2 coat protein” value [4] is reported as 24.4 nM.
With “AAGUGUCCUAAGGAUAUCGAAGCUAUCGGCUGCCGAGAAGGUAGGACAUGAGGAUCACCCAUGUACCGUGAGCC [Reedor] (puzzle: Exclusion 6)” the “apparent KD of MS2 coat protein” value [2] was 64.6 nM.
With “UGUACUAUGCGAGCUGACUUGCGUAGUGCAGCAGGUGAAACAUGAGGAUCACCCAUGUCCUCAUUUGCUCGUCUUAU [SL-sv3-2.02 JL mod] (Eterna round: R96, puzzle: Sensor v3, turn-off variant 2)” the “apparent KD of MS2 coat protein” value (input ligand: FMN 200 uM) was 45.2 nM, the “apparent KD of MS2 coat protein” value [1] was 399 nM and the “apparent KD of MS2 coat protein” value (input ligand: none) was 43.1 nM.
“CUGAGCAGACGGAGAUCCAACAUGAGGAUCACCCAUGUCUCAAAAGCUUUUUGCUUGUCUUAUUCUCCUCUGUUCUC [Bieda] (puzzle: Sensor v3, turn-off variant 1)” was tested, and the “apparent KD of MS2 coat protein” value [3] was 13.5 nM, the “apparent KD of MS2 coat protein” value [2] was 35.5 nM and the “apparent KD of MS2 coat protein” value [4] was 11.1 nM.
For “GGCUAGUCAGGAUAUACGAACAUGUCAAAAGACGUGAAGGGACAUGAGGAUCACCCAUGUAGAAGGGACUAGCC [salish99_ex2_r3_004] (Eterna round: R96, puzzle: Exclusion 2)”, the “apparent KD of MS2 coat protein” value (input ligand: FMN 200 uM) was 181 nM, the “apparent KD of MS2 coat protein” value [1] was 21.9 nM and the “apparent KD of MS2 coat protein” value (input ligand: none) was 27.5 nM.
With “UUGGUUGUGGUAGGAUAUCCGUUGGAAACCGUCGGAGAAGGACCACAGUCACUGGGUCUUUGUCUGGUGGAGUGGAAGAACCAU [pwkr exNG1 F6.20] (Eterna round: R96, puzzle: Exclusion NG 1)” the “apparent KD of MS2 coat protein” value (input ligand: FMN 200 uM) was 283 nM, the “apparent KD of MS2 coat protein” value [1] was 157 nM and the “apparent KD of MS2 coat protein” value (input ligand: none) was 218 nM.
In the case of “AAUAACAGAGGAUAUACUGUUUUAUGUAUUUAUUAUUUUGAACAUGAGGAUCACCCAUGUAGAAGGCUGAUUGA [JMF 75] (puzzle: Exclusion 2)”, the “apparent KD of MS2 coat protein” value [2] is reported as 31.7 nM.
In the case of “GCAGAAUGAGUUAGGAUAUGAUGAUUAUUCGGAAAUCAGAAGGAACUUGAGGAUCACCCAAGUAAAGAUAGGGU [JR_BMEx4_Sub063] (Eterna round: R97, puzzle: Brourd's mod of Exclusion 4)”, the “apparent KD of MS2 coat protein” value (input ligand: FMN 200 uM) is reported as 361 nM and the “apparent KD of MS2 coat protein” value (input ligand: none) is reported as 221 nM.
In the case of “GCUCACGCAGGAUAUACAUGAGGAUCACCCAUGUUCGAAGGGCGCGGGUACAAAGUCUGUAGAAGGGCGAAAAU [Getiin] (Eterna round: R97, puzzle: Exclusion 3)”, the “apparent KD of MS2 coat protein” value (input ligand: FMN 200 uM) is reported as 26.1 nM and the “apparent KD of MS2 coat protein” value (input ligand: none) is reported as 19.8 nM.
For “GCAUGAUACUAGGAUAUCAGCAUACUUCAAUGUUGAGAAGGAGUAACAUGAGGAUCACCCAUGUAUCCAACAUG [Exclusion 6 - 4:a] (puzzle: Exclusion 6)”, the “apparent KD of MS2 coat protein” value [2] was 38.5 nM.
For “AAGCAACAUGAGGAUCACCCAUGUGAGGAUAUACGCAUGCAUGCAUGCAUGCAUGCAAGUAGAAGGCACAAUAC [Design #16] (Eterna round: R97, puzzle: Exclusion 1)”, the “apparent KD of MS2 coat protein” value (input ligand: FMN 200 uM) was 69.8 nM and the “apparent KD of MS2 coat protein” value (input ligand: none) was 35.3 nM.
